Data: patent US20230348569A1

Target: SARS-CoV-2 spike protein variant V376F on VSV pseudoparticles (SARS-CoV-2) (UniProt P0DTC2)
Assay: cell-based or functional assay

Substance: mAb10987 (antibody)
- Neutralization IC50: 0.0178 nM
